Results on 94 variants are retold here after the supplement of paper PMC10567573.

First the molecules themselves.
B1: CD69 (parent)
chain: FVAENSSLHPESGQENDATSPHFS
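Also: lentivirally expressed fusions sorted by FACS into six bins by GFP to DsRed ratio, PSI derived from sequencing read proportions per bin multiplied by bin number.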

Variants of B1 are the subject of this data set. The data set is described as follows: protein stability index of a GFP-peptide fusion (GPS, HEK-293T) (PSI 1-6); higher = more stable. The note with it: c terminus: a fixed tail appended.
On to FVAENSSLHPESGQENDACSPHFS [T19C], for which the protein stability index amounted to 2.5.
Regarding FVAENSSLHPESGQENDAISPHFS [T19I], the protein stability index is 3.16.
Turning to FVAENSSLHPESGQENDAQSPHFS [T19Q], the protein stability index worked out at 3.16.
With FVAENSSLHPESGQENDAHSPHFS [T19H], the protein stability index was found to be 3.19.
As for FVAENSSLHPESGQENDAYSPHFS [T19Y], the protein stability index was 2.02.
For the variant FVAENSSLHPESGQENDAGSPHFS [T19G], the protein stability index stood at 3.24.
For FVAENSSLHPESRQENDATSPHFS [G13R], the protein stability index is 2.49.
With FVAENSSLHPESDQENDATSPHFS [G13D], the protein stability index is 3.4.
In the case of FVAENSSLHPESQQENDATSPHFS [G13Q], the protein stability index was determined as 3.09.
As to FVAENSSLHPESCQENDATSPHFS [G13C], the protein stability index amounted to 2.89.
For the variant FVAENSSLHPESFQENDATSPHFS [G13F], the protein stability index was found to be 2.69.
Regarding FVAENSSLHPESKQENDATSPHFS [G13K], the protein stability index was 3.24.
As for FVAENSSLHPESMQENDATSPHFS [G13M], the protein stability index is 3.38.
For FVAENSSLHPESGQEKDATSPHFS [N16K] the value was 3.29; for FVAENSSLHPESGQEGDATSPHFS [N16G], 2.88; for FVAENSSLHPESGQETDATSPHFS [N16T], 2.8.
As for FVAENSSLHPESGQELDATSPHFS [N16L], the protein stability index worked out at 2.81.
Regarding FVAENSSLHPESGQEQDATSPHFS [N16Q], the protein stability index was 3.37.
For the variant FVAENSSLHPESGQEPDATSPHFS [N16P], the protein stability index came to 2.6.
As for FVAENSSLHPESGQERDATSPHFS [N16R], the figure is 2.66; as for FVAENSSLHPESGQEYDATSPHFS [N16Y], 2.72; as for FVAENYSLHPESGQENDATSPHFS [S6Y], 2.85.
As for FVAENISLHPESGQENDATSPHFS [S6I], the figure is 2.38; as for FVAENNSLHPESGQENDATSPHFS [S6N], 2.69.
With FVAENGSLHPESGQENDATSPHFS [S6G], the protein stability index worked out at 3.37.
As to FVAENCSLHPESGQENDATSPHFS [S6C], the protein stability index was 2.46.
With FVAENMSLHPESGQENDATSPHFS [S6M], the protein stability index was found to be 2.55.
As for FVAENFSLHPESGQENDATSPHFS [S6F], the protein stability index is 2.21.
On to KVAENSSLHPESGQENDATSPHFS [F1K], for which the protein stability index came out at 5.78.
Regarding LVAENSSLHPESGQENDATSPHFS [F1L], the protein stability index is 5.13.
On to IVAENSSLHPESGQENDATSPHFS [F1I], for which the protein stability index is 5.04.
On to AVAENSSLHPESGQENDATSPHFS [F1A], for which the protein stability index came to 4.81.
As for QVAENSSLHPESGQENDATSPHFS [F1Q], the figure is 5.65; as for TVAENSSLHPESGQENDATSPHFS [F1T], 5.58.
Regarding HVAENSSLHPESGQENDATSPHFS [F1H], the protein stability index was determined as 4.98.
With FVAENSLLHPESGQENDATSPHFS [S7L], the protein stability index came out at 2.67.
On to FVAENSALHPESGQENDATSPHFS [S7A], for which the protein stability index is 3.13.
As to FVAENSILHPESGQENDATSPHFS [S7I], the protein stability index is 2.39.
With FVAENSKLHPESGQENDATSPHFS [S7K], the protein stability index was found to be 2.51.
With FVAENSPLHPESGQENDATSPHFS [S7P], the protein stability index worked out at 3.11.
FVAENSGLHPESGQENDATSPHFS [S7G]: the protein stability index was determined as 3.29.
As for FVAENSNLHPESGQENDATSPHFS [S7N], the protein stability index came out at 3.3.
As for FVAENSSLHPESGQENGATSPHFS [D17G], the protein stability index was 2.65.
Consider FVAENSSLHPESGQENCATSPHFS [D17C], for which the protein stability index stood at 2.31.
Regarding FVAENSSLHPESGQENRATSPHFS [D17R], the protein stability index worked out at 2.24.
As for FVAENSSLHPESGQENIATSPHFS [D17I], the figure is 2.69.
For the variant FVAENSSLHPESGQENHATSPHFS [D17H], the protein stability index came to 2.97.
As for FVAENSSLHPESGQENTATSPHFS [D17T], the figure is 2.54; as for FVAENSSLHPESGQENQATSPHFS [D17Q], 2.32; as for FVAENSSLHPESGQENMATSPHFS [D17M], 2.46.
With FVAENSSNHPESGQENDATSPHFS [L8N], the protein stability index came out at 3.65.
On to FVAENSSWHPESGQENDATSPHFS [L8W], for which the protein stability index turned out to be 1.72.
Take FVAENSSEHPESGQENDATSPHFS [L8E]: the protein stability index was 3.86.
Take FVAENSSGHPESGQENDATSPHFS [L8G]: the protein stability index turned out to be 3.78.
As for FVAENSSCHPESGQENDATSPHFS [L8C], the figure is 2.8; as for FVAENSSDHPESGQENDATSPHFS [L8D], 3.62.
In the case of FVAENSSMHPESGQENDATSPHFS [L8M], the protein stability index was determined as 3.06.
For the variant FVAENSSSHPESGQENDATSPHFS [L8S], the protein stability index came out at 3.75.
Regarding FVAENSSQHPESGQENDATSPHFS [L8Q], the protein stability index turned out to be 3.62.
As to FVAENSSFHPESGQENDATSPHFS [L8F], the protein stability index was determined as 2.4.
As for FVAENSSRHPESGQENDATSPHFS [L8R], the figure is 2.49; as for FVAENSSLHPEYGQENDATSPHFS [S12Y], 2.39.
For FVAENSSLHPEIGQENDATSPHFS [S12I], the protein stability index was 2.86.
With FVAENSSLHPEHGQENDATSPHFS [S12H], the protein stability index was determined as 2.64.
In the case of FVAENSSLHPECGQENDATSPHFS [S12C], the protein stability index was found to be 2.73.
As for FVAENSSLHPESGQENDATHPHFS [S20H], the protein stability index was determined as 2.5.
For the variant FVAENSSLHPESGQENDATTPHFS [S20T], the protein stability index is 3.12.
In the case of FVAENSSLHPESGQENDATKPHFS [S20K], the protein stability index stood at 2.71.
For FVAENSSLHPESGQENDATDPHFS [S20D] the value was 4.01; for FVAENSSLHPESGQENDATPPHFS [S20P], 2.54; for FVAENSSLHPESGQENDATQPHFS [S20Q], 3.15.
As for FVAENSSLSPESGQENDATSPHFS [H9S], the figure is 3.32; as for FVAENSSLPPESGQENDATSPHFS [H9P], 3.6; as for FVAENSSLVPESGQENDATSPHFS [H9V], 3.03.
FVAENSSLKPESGQENDATSPHFS [H9K]: the protein stability index was found to be 3.62.
In the case of FVAENSSLGPESGQENDATSPHFS [H9G], the protein stability index came to 3.4.
On to FVAENSSLCPESGQENDATSPHFS [H9C], for which the protein stability index amounted to 3.15.
For the variant FVAENSSLTPESGQENDATSPHFS [H9T], the protein stability index turned out to be 3.7.
For FVAENSSLRPESGQENDATSPHFS [H9R] the value was 2.79; for FVAENSSLLPESGQENDATSPHFS [H9L], 2.96; for FVAENSSLHPDSGQENDATSPHFS [E11D], 3.22.
For the variant FVAENSSLHPSSGQENDATSPHFS [E11S], the protein stability index was 2.52.
Regarding FVAENSSLHPKSGQENDATSPHFS [E11K], the protein stability index is 2.35.
For FVAENSSLHPWSGQENDATSPHFS [E11W], the protein stability index was determined as 2.05.
As for FVAENSSLHPFSGQENDATSPHFS [E11F], the protein stability index came out at 1.82.
Take FVAEDSSLHPESGQENDATSPHFS [N5D]: the protein stability index is 4.57.
Turning to FVAESSSLHPESGQENDATSPHFS [N5S], the protein stability index amounted to 2.57.
FVAEESSLHPESGQENDATSPHFS [N5E]: the protein stability index was 3.7.
For the variant FVAEASSLHPESGQENDATSPHFS [N5A], the protein stability index came to 3.1.
Turning to FVAERSSLHPESGQENDATSPHFS [N5R], the protein stability index was 2.16.
In the case of FVAECSSLHPESGQENDATSPHFS [N5C], the protein stability index is 2.5.
Consider FVAEQSSLHPESGQENDATSPHFS [N5Q], for which the protein stability index was 3.22.
With FVAELSSLHPESGQENDATSPHFS [N5L], the protein stability index came out at 2.95.
In the case of FVAEYSSLHPESGQENDATSPHFS [N5Y], the protein stability index stood at 2.87.
